Biological target: E. coli RNA polymerase (E. coli) (UniProt P0A7Z4)
Sequence (P0A7Z4 whole entry, looked up): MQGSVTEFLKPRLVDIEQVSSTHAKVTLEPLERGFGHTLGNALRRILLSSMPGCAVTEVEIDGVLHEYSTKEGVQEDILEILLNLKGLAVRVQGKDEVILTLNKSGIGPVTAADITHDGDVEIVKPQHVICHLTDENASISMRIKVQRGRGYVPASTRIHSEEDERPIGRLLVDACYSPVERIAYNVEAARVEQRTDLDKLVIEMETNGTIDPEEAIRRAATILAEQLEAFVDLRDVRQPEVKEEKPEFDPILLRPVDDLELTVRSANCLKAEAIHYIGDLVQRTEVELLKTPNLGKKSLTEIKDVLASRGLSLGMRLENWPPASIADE

B1: Escherichia coli RfaH (natural protein)
chain: MQSWYLLYCKRGQLQRAQEHLERQAVNCLAPMITLEKIVRGKRTAVSEPLFPNYLFVEFDPEVIHTTTINATRGVSHFVRFGASPAIVPSAVIHQLSVYKPKDIVDPATPYPGDKVIITEGAFEGFQAIFTEPDGEARSMLLLNLINKEIKHSVKNTEFRKL
  Exo III footprinting of the upstream boundary of the ops TEC (100 nM RfaH): 7 nt
